Test results taken from US20230380451A1, “MEANS AND METHODS TO DETOXIFY MYCOTOXINS” (priority 2020, published 2023).

Experiment: Storage stability in storage buffer at different temperatures, residual DON transformation activity
Format: biochemical
Conditions: for Relative DON transformation activity: storage buffer
Method: To determine the transformation of DON to epi-THS by Akr I-III, described herein, the following assay was performed. An assay buffer was prepared containing 40 ppm DON, 1 mM NADPH in Teorell Stenhagen (TS) buffer, pH 6.0 (Östling and Virtama, Acta Physiologica Scandinavica, 1946, 11:4, 289-293). Tubes containing the assay buffer were transferred in a heating block at 30° C. The reaction was started by addition of Akr I-III to a final concentration of 200 nM in a final reaction volume of 200 μL. Samples were taken before reaction start, and 2, 5, 10, 15 and 20 min after reaction start. DON transformation reactions in these samples were stopped by mixing with absolute methanol at a 1:2 ratio, followed by a 1:100 dilution with 40% methanol. The concentrations of DON and epi-THS in the samples were determined with liquid chromatography-mass spectrometry (LC-MS) on a Sciex 5500 triple quadrupole mass spectrometer coupled to Agilent 1290 series UHPLC system, using the following MS parameters: Acquisition duration: 4 min; Scan Type: MRM (MRM); Polarity: Negative; Ion Source: Turbo Spray.
The storage stability of Akr I-III was tested by incubation of 5 μM enzyme solutions in storage buffer (50 mM Tris pH 9.0, 0.5M NaCl, 50% Glycerol), for 60 min in a thermocycler (Mastercycler, Eppendorf) set to gradient mode from 30° C. to 50° C. Throughout the incubation, samples were removed and placed on ice until DON transformation assays were performed as described in Example 3 to determine enzyme activities. The starting activity at time 0 min was set to 100% and the relative residual activities were determined throughout the incubation. Akr I retained more than 33% activity during 60 min in pH 6 at temperatures from 29.9° C. to 46.0° C. Akr III retained 15% to 90% activity during 20 min in pH 6 at temperatures from 29.9° C. to 40.7° C.

[1] = 29.9° C., 0 min (starting activity set to 100%)
[2] = 35.3° C., 0 min (starting activity set to 100%)
[3] = 37.9° C., 0 min (starting activity set to 100%)
[4] = 40.7° C., 0 min (starting activity set to 100%)
[5] = 43.4° C., 0 min (starting activity set to 100%)
[6] = 46.0° C., 0 min (starting activity set to 100%)
[7] = 50.8° C., 0 min (starting activity set to 100%)

B1: Akr II: artificial amino acid sequence, variant of a wild type aldo-keto reductase (protein)
chain: MRTTEIAQGLKVSNLCIGAGPLGGMPTAFGYDVSEERGIATVQAVFDSPINFMDTSSEYGGSEARIGKVIREGLMPKGFVISSKADAEGEGVGRRGDFSAKQVRASFELSLERLGLTHLDVYFLHDPEKFPFEQVMARGGAMEELLRLKDEGLVGLVGVAGGDVLEMARYVDTGSLDILLNYGRYTLLDRSADSLITKVSDAGMAFLNAGPYASGLLAAPRGGSAWYQYAPPDATALQAVDQLHELCESFDVSLRSVALQFSMRDPRITSTVVGLSRPERVRALLDDEAAEIPAELWEQLPAPLNGDIVLPG
modifications: ArkII
[1]
  Relative DON transformation activity: 100.00%
29.9° C., 5 min
  Relative DON transformation activity: 95.8%
29.9° C., 10 min
  Relative DON transformation activity: 91.6%
29.9° C., 20 min
  Relative DON transformation activity: 90.3%
29.9° C., 35 min
  Relative DON transformation activity: 89.4%
29.9° C., 50 min
  Relative DON transformation activity: 84.1%
29.9° C., 60 min
  Relative DON transformation activity: 86.8%
[2]
  Relative DON transformation activity: 100.00%
35.3° C., 5 min
  Relative DON transformation activity: 91.9%
35.3° C., 10 min
  Relative DON transformation activity: 92.5%
35.3° C., 20 min
  Relative DON transformation activity: 86.0%
35.3° C., 35 min
  Relative DON transformation activity: 77.4%
35.3° C., 50 min
  Relative DON transformation activity: 49.6%
35.3° C., 60 min
  Relative DON transformation activity: 46.4%
[3]
  Relative DON transformation activity: 100.00%
37.9° C., 5 min
  Relative DON transformation activity: 90.5%
37.9° C., 10 min
  Relative DON transformation activity: 80.2%
37.9° C., 20 min
  Relative DON transformation activity: 65.0%
37.9° C., 35 min
  Relative DON transformation activity: 38.1%
37.9° C., 50 min
  Relative DON transformation activity: 10.6%
37.9° C., 60 min
  Relative DON transformation activity: 6.2%
[4]
  Relative DON transformation activity: 100.00%
40.7° C., 5 min
  Relative DON transformation activity: 61.5%
40.7° C., 10 min
  Relative DON transformation activity: 56.1%
40.7° C., 20 min
  Relative DON transformation activity: 15.5%
40.7° C., 35 min
  Relative DON transformation activity: 11.3%
40.7° C., 50 min
  Relative DON transformation activity: 0.00%
40.7° C., 60 min
  Relative DON transformation activity: 0.00%
[5]
  Relative DON transformation activity: 100.00%
43.4° C., 5 min
  Relative DON transformation activity: 39.2%
43.4° C., 10 min
  Relative DON transformation activity: 34.9%
43.4° C., 20 min
  Relative DON transformation activity: 21.9%
43.4° C., 35 min
  Relative DON transformation activity: 7.1%
43.4° C., 50 min
  Relative DON transformation activity: 0.00%
43.4° C., 60 min
  Relative DON transformation activity: 0.00%
[6]
  Relative DON transformation activity: 100.00%
46.0° C., 5 min
  Relative DON transformation activity: 2.9%
46.0° C., 10 min
  Relative DON transformation activity: 4.7%
46.0° C., 20 min
  Relative DON transformation activity: 0.00%
46.0° C., 35 min
  Relative DON transformation activity: 2.7%
46.0° C., 50 min
  Relative DON transformation activity: 0.00%
46.0° C., 60 min
  Relative DON transformation activity: 0.00%
[7]
  Relative DON transformation activity: 100.00%
50.8° C., 5 min
  Relative DON transformation activity: 4.7%
50.8° C., 10 min
  Relative DON transformation activity: 5.7%
50.8° C., 20 min
  Relative DON transformation activity: 9.4%
50.8° C., 35 min
  Relative DON transformation activity: 2.4%
50.8° C., 50 min
  Relative DON transformation activity: 0.00%
50.8° C., 60 min
  Relative DON transformation activity: 0.00%

B2: Akr III: artificial amino acid sequence, variant of a wild type aldo-keto reductase (protein)
chain: MRTTEIAQGLKVSNLCIGAGPLGGMPTAFGYDVSEERGIATVQAVFDSPINFMDTSSEYGGSEARIGKVIREGRMPKGFVISSKADAEGEGVGRRGDFSAKQVRASFELSLERLGLTHLDVYFLHDPEKFPFEQVMARGGAMEELLRLKDEGLVGLVGVAGGDVLEMARYVDTGSLDILLNYGRYTILDRSADSLITKVSDAGMAFLNAGPYASGLLAAPRGGSAWYQYAPPDATALQAVDQLHELCESFDVSLRSVALQFSMRDPRITSTVVGLSRPERVRALLDDEAAEIPAELWEQLPAPLNGDIVLPR
modifications: ArkIII
During 60 min in pH 6 at temperatures from 29.9° C. to 46.0° C.
  retained activity: more than 50%
[1]
  Relative DON transformation activity: 100.00%
29.9° C., 5 min
  Relative DON transformation activity: 89.1%
29.9° C., 10 min
  Relative DON transformation activity: 91.6%
29.9° C., 20 min
  Relative DON transformation activity: 90.3%
29.9° C., 35 min
  Relative DON transformation activity: 93.1%
29.9° C., 50 min
  Relative DON transformation activity: 74.0%
29.9° C., 60 min
  Relative DON transformation activity: 72.2%
[2]
  Relative DON transformation activity: 100.00%
35.3° C., 5 min
  Relative DON transformation activity: 96.00%
35.3° C., 10 min
  Relative DON transformation activity: 65.2%
35.3° C., 20 min
  Relative DON transformation activity: 98.6%
35.3° C., 35 min
  Relative DON transformation activity: 75.2%
35.3° C., 50 min
  Relative DON transformation activity: 80.2%
35.3° C., 60 min
  Relative DON transformation activity: 104.3%
[3]
  Relative DON transformation activity: 100.00%
37.9° C., 5 min
  Relative DON transformation activity: 94.01%
37.9° C., 10 min
  Relative DON transformation activity: 74.5%
37.9° C., 20 min
  Relative DON transformation activity: 43.9%
37.9° C., 35 min
  Relative DON transformation activity: 75.2%
37.9° C., 50 min
  Relative DON transformation activity: 80.9%
37.9° C., 60 min
  Relative DON transformation activity: 78.6%
[4]
  Relative DON transformation activity: 100.00%
40.7° C., 5 min
  Relative DON transformation activity: 104.1%
40.7° C., 10 min
  Relative DON transformation activity: 76.1%
40.7° C., 20 min
  Relative DON transformation activity: 81.6%
40.7° C., 35 min
  Relative DON transformation activity: 104.5%
40.7° C., 50 min
  Relative DON transformation activity: 75.8%
40.7° C., 60 min
  Relative DON transformation activity: 105.1%
[5]
  Relative DON transformation activity: 100.00%
43.4° C., 5 min
  Relative DON transformation activity: 83.4%
43.4° C., 10 min
  Relative DON transformation activity: 68.1%
43.4° C., 20 min
  Relative DON transformation activity: 66.7%
43.4° C., 35 min
  Relative DON transformation activity: 89.3%
43.4° C., 50 min
  Relative DON transformation activity: 81.3%
43.4° C., 60 min
  Relative DON transformation activity: 91.8%
[6]
  Relative DON transformation activity: 100.00%
46.0° C., 5 min
  Relative DON transformation activity: 97.7%
46.0° C., 10 min
  Relative DON transformation activity: 62.6%
46.0° C., 20 min
  Relative DON transformation activity: 62.5%
46.0° C., 35 min
  Relative DON transformation activity: 58.4%
46.0° C., 50 min
  Relative DON transformation activity: 23.3%
46.0° C., 60 min
  Relative DON transformation activity: 50.4%
[7]
  Relative DON transformation activity: 100.00%
50.8° C., 5 min
  Relative DON transformation activity: 77.4%
50.8° C., 10 min
  Relative DON transformation activity: 72.7%
50.8° C., 20 min
  Relative DON transformation activity: 19.5%
50.8° C., 35 min
  Relative DON transformation activity: 16.6%
50.8° C., 50 min
  Relative DON transformation activity: 10.9%
50.8° C., 60 min
  Relative DON transformation activity: 16.0%
